One data set concerns the target T1, CjSlc13-1 (Williopsis jadinii, UniProt A0A1E4RYH4).
T1 construct: gene CYBJADRAFT_194887
The conditions noted are these: pH 6.0, 30 °C; labelled compound.

The next data set addresses T2, CjSlc13-2 (Williopsis jadinii, UniProt A0A1E4S914).
T2 construct: gene CYBJADRAFT_165372
The following applies: pH 6.0, 30 °C; labelled compound.

The target of another data set is T3, CjSlc16 (Williopsis jadinii, UniProt A0A1E4RTM6).
T3 construct: gene CYBJADRAFT_170140
The following applies: pH 6.0, 30 °C; labelled compound.

Substrate in data set [1]: CC(=O)O
Nature of the data set: cells, lysate or membranes. The conditions noted are these: pH 6.0, 30 °C, labelled compound, pH 6.0.

Substrate in data set [2]: O=C(O)CC(O)(CC(=O)O)C(=O)O
Description: cells, lysate or membranes. The conditions noted are these: pH 5.5, 30 °C, labelled compound, pH 5.5.

Substrate in data set [3]: C[C@H](O)C(=O)O
Description: cells, lysate or membranes. The conditions noted are these: pH 5.0, 30 °C, labelled compound, pH 5.0.

T3 sequence (A0A1E4RTM6 1-470): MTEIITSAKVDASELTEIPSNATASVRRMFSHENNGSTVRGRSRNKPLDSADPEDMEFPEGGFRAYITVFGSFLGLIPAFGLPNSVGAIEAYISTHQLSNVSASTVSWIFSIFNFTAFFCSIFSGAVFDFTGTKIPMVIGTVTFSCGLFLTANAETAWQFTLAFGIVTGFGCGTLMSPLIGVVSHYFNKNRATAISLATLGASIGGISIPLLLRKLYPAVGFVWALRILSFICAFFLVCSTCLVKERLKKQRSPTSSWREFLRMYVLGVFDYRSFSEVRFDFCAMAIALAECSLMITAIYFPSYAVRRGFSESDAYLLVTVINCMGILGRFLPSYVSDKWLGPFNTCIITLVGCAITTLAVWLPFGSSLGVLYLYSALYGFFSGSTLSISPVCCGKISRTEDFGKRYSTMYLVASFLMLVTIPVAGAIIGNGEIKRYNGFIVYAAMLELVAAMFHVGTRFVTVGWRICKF
T1 sequence (A0A1E4RYH4 1-843): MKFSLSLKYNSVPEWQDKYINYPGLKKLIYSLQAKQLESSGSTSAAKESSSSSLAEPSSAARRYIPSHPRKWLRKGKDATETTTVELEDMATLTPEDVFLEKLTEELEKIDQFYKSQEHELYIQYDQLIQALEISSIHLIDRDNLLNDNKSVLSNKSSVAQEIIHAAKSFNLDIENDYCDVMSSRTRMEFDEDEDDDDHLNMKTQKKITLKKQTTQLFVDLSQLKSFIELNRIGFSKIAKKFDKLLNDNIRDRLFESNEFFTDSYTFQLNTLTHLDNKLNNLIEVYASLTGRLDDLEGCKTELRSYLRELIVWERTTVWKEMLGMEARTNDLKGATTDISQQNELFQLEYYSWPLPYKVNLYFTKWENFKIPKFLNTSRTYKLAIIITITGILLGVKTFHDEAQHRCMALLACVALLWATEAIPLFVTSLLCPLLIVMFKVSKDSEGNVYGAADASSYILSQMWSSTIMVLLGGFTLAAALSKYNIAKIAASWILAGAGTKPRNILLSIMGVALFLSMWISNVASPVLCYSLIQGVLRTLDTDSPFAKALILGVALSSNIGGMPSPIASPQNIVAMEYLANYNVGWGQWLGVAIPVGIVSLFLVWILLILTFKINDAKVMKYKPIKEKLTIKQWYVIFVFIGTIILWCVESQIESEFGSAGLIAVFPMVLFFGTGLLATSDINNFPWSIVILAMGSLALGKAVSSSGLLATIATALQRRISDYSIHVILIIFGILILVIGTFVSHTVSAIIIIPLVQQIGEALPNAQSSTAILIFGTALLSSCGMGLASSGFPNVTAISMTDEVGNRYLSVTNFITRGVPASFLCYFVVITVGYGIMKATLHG
T2 sequence (A0A1E4S914 1-821): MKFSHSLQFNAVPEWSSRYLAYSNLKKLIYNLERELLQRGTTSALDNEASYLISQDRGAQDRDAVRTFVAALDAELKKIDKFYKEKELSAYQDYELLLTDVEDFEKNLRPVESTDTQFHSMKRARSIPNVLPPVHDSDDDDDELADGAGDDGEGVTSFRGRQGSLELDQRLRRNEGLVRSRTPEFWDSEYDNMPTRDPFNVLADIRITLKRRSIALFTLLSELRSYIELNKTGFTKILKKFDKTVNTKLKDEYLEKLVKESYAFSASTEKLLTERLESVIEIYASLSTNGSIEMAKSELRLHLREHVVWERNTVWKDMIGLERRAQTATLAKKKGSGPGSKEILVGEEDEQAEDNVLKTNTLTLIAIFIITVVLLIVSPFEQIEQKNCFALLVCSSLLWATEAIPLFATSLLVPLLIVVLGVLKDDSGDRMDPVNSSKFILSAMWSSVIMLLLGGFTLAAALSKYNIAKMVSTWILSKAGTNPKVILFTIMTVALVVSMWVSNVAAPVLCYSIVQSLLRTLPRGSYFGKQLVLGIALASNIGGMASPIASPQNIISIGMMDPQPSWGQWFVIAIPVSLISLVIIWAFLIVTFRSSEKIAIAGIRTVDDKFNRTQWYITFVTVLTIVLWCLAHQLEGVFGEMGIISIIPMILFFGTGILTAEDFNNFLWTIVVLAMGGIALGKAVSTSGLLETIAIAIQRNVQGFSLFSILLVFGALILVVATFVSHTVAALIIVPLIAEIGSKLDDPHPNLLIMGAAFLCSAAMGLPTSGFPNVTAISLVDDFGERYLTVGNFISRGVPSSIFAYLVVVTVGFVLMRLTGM

`CC(=O)O` [acetic acid]: the uptake result at CjSlc13-1, on CjSlc13-2 and on CjSlc16 was “All transformants presented activity for acetate uptake (Figure 3C)” in each case.

B1: CjAto3 (Williopsis jadinii) (protein)
chain: MAANVDLEKQATPNSSNDNHTFSPEDEAHPVSKVYTSGENDQYIMIGRTKVLRSELWNAFGGDLQPGIHATPPRRFANPAPLGLCAFALTTFVLSMVNARAMGITTPNIVVGLALFYGGFVQLLAGMWEIALDNTFGGTALSSYGGFWMSYAAIQIDWFGIKSAYTDPIELANAVSFFLLGWTIFTFMILLCTVKSTVSFFSLFFFLEITFLLLTIGDFTRRVGVTRAGGVFGVITAFIAWYNAFAGIATKENSYITIKAWPLPGAKRA
In the case of B1, the Km in data set [1] was found to be 9.17 ± 4.70 mM.

B2: CjJen3 (Williopsis jadinii) (protein)
chain: MAMSDVKRYILSRVPTLFCIPGTSFQALNPVPALSALSRNDWNYFLMGYAAWTIDAFDFFCVSACAPALAQALDRSVTDITWGITLVLMTREYFAHIDGQLTDIFEIGSLGAVIFGSLSDTYGRKPTYLAVMCLFCIIEVGTGFVQNYTQFLVVRAMFGICMGGCYTTASATALESQPVGSRSVLGGIFLPGYNLGYILAVAFYRAFEFTEHGWRALFWFSAAPPAILFVWRMFFPEHPHFTALKRVQREKALSEGKHHQASSPWAQFFADLKSAMRHHWLMFVYLVIYMSLMNFSSHASQDLMPTMLQNQLGFEANDRTIIMVVINIGAIFGGLCVGTISEYTGRRLAVFVCTICSSALIYPAFYTTDMAGLICGGFFMQFFVMGCWGVTSVYIMELSPNAFRALFGGLAYQLGNLASSASSTIEAEISEAFPLSDIGPEVYDYARSMALFMVGVNVCLVICIVSGPEKFHKDFSIQGEGQEQLQRKSCNDVDEELAIEYTEDLKHTDRVSWTEKHSIHHNEKT
For B2, the Km in data set [1] was found to be 3.21 ± 1.07 mM.

B3: CjJen6 (Williopsis jadinii) (protein)
chain: MGFKTYSMSECAQYTRERFTTLLPSREQWEVEKSHMNPFPGLRAMTWRNWQFYIIGMLAWTWDALDFFAMSLNMSNISEDLNRSVKDVSWGITLVLMFRSVGAIFFGYFGDRYGRKWPLIVNLICLIVIQIGTGFVKTYSEFLGVRALFGIFMGSMYGLASATALEGLPTDARSFLSGVFQQGYALGYLLAVIFQRAITDTTEKGWRSLFWFSAGPPVLFILWRAFLPETEEFLQQKLHMSNRKSTFRRDAWNTFKQQWVKMGYLVLLMAGMNFMSHGSQDLYPTMLTKQLGFSSDRSTVTNSVANLGAMAGGMVIGHFSGFIGRRAAIMVCCICGGAMIYPWAFVTGNGINAGVFFLQFFVQGAWGVIPIHLSELSPPEFRAFVVGVSYQLGNLVSSASSTIETTIGERFPLYTETGERREGVYDYAKVMAIFVGAVFAYVFLISFIGPENRHANINFVLSDEEQREMVSQGKIITHKGSDDENLDEEKAVAFHTENVVSEVK
Consider B3, for which, in data set [2], the Michaelis-Menten constant (Km) is reported as 21.44 ± 7.17 mM.

B4: CjJen4 (Williopsis jadinii) (protein)
chain: MTAGRYIATRIPSLFTLPGTPVKSLNPAPAMRALSRSDWNYFAMGYCAWVIDAFDFFCVSACAPALAKAFDRSIHDITWGITLVLMTRSLGAVIFGSLSDTYGRKPTYLAVMALFSIIEIGTGFVQNYTQFLIVRLLFGICMGGCYTTASATALESQPTTSRSVLGGIFLPGYNLGYILAVAFYRAFEFSTHGWRALFWFSAAPPAILFMWRLMFPEHPHFVEHKRVQREKALAEGNHAQAASPWRQFYSDLKKALSNHWLMFVYLVFYLSLMNFSSHASQDLMPTMLQNQLFFSANQRTAIMIVVNLGAMVGGLCVGTLSEFTGRRLAIFSCAVGSSALIYPAFFSTSIGGLMAGGFFMQFFVMGCWGVCSVYIMELSPPAFRALFGGLAYQLGNLASSASSTIESEISSSFPLPDLGPSVYDYAKSMALFMVGVNVCLIVCIVCGPEYFHRDFSAHAEENYSDQKKATIEQFDTASDEERAMGSLKMNTEVEEFDMDKASVQHRESARD
For the molecule B4, in data set [1], the Km was 1.62 ± 0.43 mM.

B5: CjJen5 (Williopsis jadinii) (protein)
chain: MDWDAFDFFVMSLNVSKLATDLDRSVKDISWGITVVLMFRSVGAIVFGYFGDRYGRKWPLIVNLFCLVVIQIGTGFINTYAEFIGVRALFGVFMGSMYGLASATAMEGLPTSARSFLSGVYQQGYALGYLLGVIFQRAITDTTTHTWRSLFWFSAGPPKLKPFLQQQLHMKNKNTSFSEDACKVFKEQWLKMIYLVLLMAGMNFMSHGSQDLYPTMLTVQLNYSPNRSTVTNSVANLGALAGGMTFGHFSGFLGRRSGIIICSILGACMIYPWAFVRNSGINAGVFFLQFFVQGAWGVIPIHLSELSPPEFRAFVVGVSYQLGNLASSASSTIESTLGERYPLYDDNGDVIEGVYDYARVMAIFVGAVFCYVILIAFIGPENRHSNINYVLSKEEEEELIQQRMIVTNNGSEQDSNADDEEKLVTAHTEKIEPK
As for B5, the Km in data set [1] is listed as 5.18 ± 1.51 mM.

B6: CjAto4 (Williopsis jadinii) (protein)
chain: MSDKENQTLNNPQTQDYASTGGKPDVEHGEIPVSKVYTTGDQDEYLMIGHQKVLRSELWTAFGGDLQPGVHAPPPQRLANPAPLGLCGFALTTFVLSMANARAMGVTIPNAAVGAACFYGGLVQLLAGMWEISLDNTFGGTALSSYGGFWMSWAAIQIDWFGIKKAYDDPIMLANAVGFFLLGWTIFTFMLVLCTVKSTVAFFSLFFFLDITFLLLTIGEFTRKTGVSRAGGVFGVITSFIAWYNAFAGLATKENSYVVAIPLPLPGAKRS
Consider B6, for which the Km in data set [1] was 1.28 ± 0.38 mM.

B7: CjAto2 (Williopsis jadinii) (protein)
chain: MSSINEDLEKISSLGELNYDSHPISQVRTAGPNDEFVMLGRMKVRKSELWSAFGGDLQPGVHAQPQRKFANPVPIGLCGFALTTLVLSMANARAMGIRTPNVAVAPAFFYGGFAQILAGMWEIALENTFGSVVLTSYGCFWLSWAAIEIDWFGIKAAYDDPIELENAIGFFLLGWVIFTFLILLCTMKSTVAFFSMFFLLEITFILLTVASFTRHVGCQRAGGVFGVITGFLAWYNAYAGIATKEISYFVPKPWPLPGASHL
Take B7: the Km in data set [3] is listed as 4.33 ± 0.70 mM.

B8: CjSlc5 (Williopsis jadinii) (protein)
chain: MFAETEDGPDYRGVTTFGAAVLIAKGQLGLGVLGIPSTFDVLGFVPGLISLVGLSILVTWTGVVIGQFRLAHPKVYCIDDATEIMFGKAARELVGWGYWLFYTMCYGAALITVSIALNTFSDHGLCTMAFIGIATGATTILTLFTRTMKVLSWLGFIAISCIFFAIWVVAIACLTQSTPAAAESLVDPAKKVIQVVATHSSYKKIAAAVSVQLLSLAGGASFFTIHAEMKDQTKYTKSLLMGQGFIVFNYIAIACIMYAKVGQYIASPALGSAGRTFQIISYGIAFPGLMFSCFFLAHLAAKYALVRILRGTEHLQKNSKTHWITWTAMVAIVIAVGFVIAGAIPFFGDLLGLIGALLGSIFALIAPGFMCLYDMNYKFEGKVPRGYTWIYKNNGSWTKNFWTKLETLLSFFCIASGIYILFTGVYGSIASIADLYSSGAVSGAFSCADNS
Consider B8, for which the Km in data set [2] was determined as 17.24 ± 4.73 mM.

B9: CjJen1 (Williopsis jadinii) (protein)
chain: MHKLEESVTRQDSIHEDPDDVVIEDEQEIILNWPNIVEYSKTRFTSLTHLHLHAVGDLNPLPSLREMSWNNWNFFFMGFVAWFSASFDFFLTAVSGTYIAQSLDVSTADITWGLSAVLMVRSAGAVIFGLWTDNYSRKWPFITTAAMFCALQIGTGFCKTYQQFMAVRAISGIAMGGTYATAAATSMDDAPLKARSFLSGLFFSAYAFGMIFAAIFWRAFESTKHSWKALFWFSSCFPFILICWRLVFPETRYFTRVLKARELIKQDQIEAGVYVKPTLKTKWGSVKAMLKKDWLLFTYLVILLAGTNYLTHASQDMYPTMLRSQLEWSLDAQTVAIVVVNLGAICGGLIAGTFMEVTGRRLAILICCVIGGCFVYPAYMMHNNSAVLGGGFFLFFAVIGVWGVLPIHLSELSPPDARALVSGLAYQLGNLASSASSTIETRLAKLWPLEWDAEGNPIKYDYAKTIACFTGAVFIYVFITTFIGPEKFHRDLSSPLLKTYIEKVIEIEEGRDPEAKFVTSSGDTSEQASYGKATHEEIELDCYPQEKK
Consider B9, for which the Km in data set [1] was determined as 2.15 ± 0.60 mM.

B10: CjAto1 (Williopsis jadinii) (protein)
chain: MSDKESQMLNTSQSQERAIDAGCDDLQEDVEHQQVPVSKVFTSGERDEYVMIGRTKVLRSELWNAFGGDLQPGIHAPPPRRFANPAPLGLCGFALTTFVLSMSNARAMGITVANVAVGPAFFYGGIIQLLSGMWEISLDNTFGGTVLSSYGGFWLSWAAIQIDWFGIQRAYDDPIMLNNGLGFFLLGWVIFTLMVLICTVKSTVAFFSLFFFLEMTFLLLTIGEFTRSVGVTRAAGVFGVITSFLGWYNALAGFATRENSYFVATAVPLPGAKRAQVHS
On to B10, for which the Km in data set [1] amounted to 12.18 ± 4.67 mM.

B11: CjAto5 (Williopsis jadinii) (protein)
chain: MSTSSLPEDLEKGYATQSLHEMNTAVTNDPSQPVVMRVVTSSNGDIIHLGNQAFSKKDLFNAFAGDLQPGLHATPHRPMGNPVPMGLTSFCICCFVVSLVNAQARGVTNAKVIASCALFFAGVVETISGLWCLVIENTFAATALGSFGGFWMGYAGLLIDAFGITSSYSTTEELGNALGFYLTAWTIFAFLMWLCTFKSTWPFFILFLLVWVFLMCLAIGKYNDNTTATKAGGVLGLVATFVGFFIVYAGVADSSNSYLTIPASPMPHAPRV
In the case of B11, the Km in data set [2] is reported as 22.21 ± 7.14 mM.

B12: CjJen2 (Williopsis jadinii) (protein)
chain: MTSPLPVSPTQDSGLEEPKEDKNIGLTRTLQENEEDSNSSNDEDVPDYSWSSIKRYSRTRFTTLGELHLDSLSDLNPLPALKEMTPRNWNFFFMGFIAWFSASFAFFLTAVSGTVIAESLEVSTKDITWGLSSVLMVRSAGAVIFGLWTDNYSRKWPFIATAAMFCVLQIGTGFCNTYTQFLAGGTYATAAATSLEDAPLKARSTLSGLFFTAYPFGMVFAAIFWRAFQETDHTWKALFWFSAGIPFVLIIWRLLYPETIYFTELLKVKKLIKEEASTSPKISKWAKTKTMFSKYWLLFTYLVLLLASSNFLTHASQDMYPTMLRSQFGWSNDAQTVAIVVTNLGGVIGSLVTGIVMEVLGRRLSILLCCVIGGSFIYPALMLHTTSATLGCGFFMMFGVLGVWGVIPAHLSELSPPDARVLVSGLAYQLGNLASSASSTIETDLAQRWPLEWDAEGNVIRLDYAKTIAVFTGAVFIYTVVIALVGPEKYHRDLNSPLLKKYFAKLRENDVEKGSSSE
As to B12, the Km in data set [1] is 1.26 ± 0.35 mM.

The term Km denotes the substrate concentration at which the rate is half of its maximum.

(Values after paper PMC8779868, “Uncovering Novel Plasma Membrane Carboxylate Transporters in the Yeast Cyberlindnera jadinii” (Journal of Fungi, 2022).)
